Experimental data reported in article PMC8313286.

Experiments:
[1] = biological target: RepA, putative replicase of megaplasmid pMP7017 (Bifidobacterium breve JCM7017 (megaplasmid pMP7017)); experiment: SEC-MALS
[2] = biological target: RepB, replication initiator of megaplasmid pMP7017 (Bifidobacterium breve JCM7017 (megaplasmid pMP7017)); experiment: SEC-MALS

Substance	percent of total protein in the dimer peak [1]	percent of total protein in the presumed octamer peak [1]	percent of total protein in the presumed tetramer peak [1]	percent of total sample in the dimer peak [2]	stoichiometry N [2]
RepA, putative replicase of megaplasmid pMP7017 (natural protein)	67.3%	15.7%	17%		
RepB, replication initiator of megaplasmid pMP7017 (natural protein)				97%	2
